Results as given in patent CN114395035A (JIANGSU MICKEE MEDICAL TECH CO LTD; INST OF MICROBIOLOGY OF …, dated 2022).

Tests used:
[1] = molecular target: T1, SARS-CoV-2 Alpha variant RBD蛋白 (SARS-CoV-2, UniProt P0DTC2 319-541); test: SPR (Biacore 8K)
T1 construct: domain: RBD

[2] = molecular target: SARS-CoV-2 Beta variant RBD蛋白 (Beta型新型冠状病毒刺突蛋白受体结合域段RBD蛋白) (SARS-CoV-2, UniProt P0DTC2 319-541); test: SPR (Biacore 8K)
[3] = molecular target: SARS-CoV-2 Omicron variant RBD蛋白 (Omicron新型冠状病毒RBD蛋白) (SARS-CoV-2, UniProt P0DTC2 319-541); test: SPR (Biacore 8K)
[4] = molecular target: T2, SARS-CoV-2 Delta variant RBD蛋白 (SARS-CoV-2, UniProt P0DTC2 319-541); test: SPR (Biacore 8K)
T2 construct: domain: RBD

Omicron BA.2-RBD = molecular target: T3, Omicron BA.2-RBD (SARS-CoV-2, UniProt P0DTC2 319-541); test: lateral-flow sandwich, gold-labelled IMCAS-364 as detector (Table 4)
T3 construct: domain: RBD

Omicron BA.1-RBD = molecular target: T4, Omicron BA.1-RBD (SARS-CoV-2, UniProt P0DTC2 319-541); test: lateral-flow sandwich, gold-labelled IMCAS-364 as detector (Table 5)
T4 construct: domain: RBD

Binder	Kd [1] [pM]	Kd [2] [pM]	Kd [3] [pM]	Kd [4] [pM]	binding result (Omicron BA.2-RBD)	binding result (Omicron BA.1-RBD)
IMCAS-364抗体 (全抗IgG1) (antibody, V domains shown, also called 金标抗体 (胶体金标记)) VH: QVQLQESGGGVVQPGRSLRLSCAASGFTFSRYGMHWVRQAPGKGLEWVAVIWYDGSNKYYADSVKGRFTISRDNSKNTLYLQMNSLRADDTAVYYCAKQEGTYCSGGSCYSGLDYWGQGTLVTVSS VL: not shown	1060	1070	2190	–	–	–
IMCAS-72抗体 (全抗IgG1) (antibody, V domains shown, also called T2线抗体) VH: QVQLVESGGGLVQPGGSLRLSCAASGFTFSSYGMHWVRQAPGKGLEWVAVISYDGSDKYYADSVKGRFTISRDNSKNTLYLQMNSLRAEDTAVYYCARDRDRFGDQGGWFDPWGQGTLVTVSS VL: not shown	–	–	–	620	no binding (tested: IMCAS-72 0.8mg/mL on the T2 line)	no binding (tested: IMCAS-72 2mg/mL on the T2 line)
IMCAS-123抗体 (全抗IgG1) (antibody, V domains shown, also called T1线抗体) VH: not shown VL: DIQMTQSPSSVSASVGDSVTITCRASQGISRWLAWYQQRPGKAPKLLIYAAGNLETGVPSRFSGSGSGTDFTLTISDLQAEDFATYYCQQADSFPLTFGGGTKVDIKR	150	320	1410	480	–	–
